Laboratory results as given in PMC7596504, “Molecular mechanism of the MORC4 ATPase activation” (Nature Communications, 2020).

Experiments:
[1] = system: NCP147; assay: Fluorescence polarization binding to NCP147
[2] = system: NCP147; assay: FRET, LexA titration into Cy3-Cy5 labeled NCP147; type: binding; details: addition of MORC4 ATPaseCW
Method: Histone octamers unlabeled or labeled with Cy5 at H2AK119 were prepared as previously described. NCPs were reconstituted by combining octamer with 1.25× excess DNA and performing slow salt dialysis. Free DNA was then separated from fully reconstituted NCPs by sucrose gradient purification. NCPs for fluorescence polarization assays were reconstituted from unlabeled octamer and 207 bp DNA containing the 601 Widom sequence flanked with a 30 bp linker on either side and internally labeled with Fluorescein 27 bp in from the 5′ end. Cy3-Cy5 labeled NCPs for FRET assays were reconstituted with Cy5 labeled octamer plus either 147 bp 601 Widom DNA containing a LexA transcription factor binding site at bases 8–27[34], or 252 bp DNA containing the 601 Widom sequence with a 75 bp linker at the 3′ end, a 30 bp linker at the 5’ end, and a Gal4 transcription factor binding site at bases 8–26 in the 601 Widom sequence. The 147 bp LexA-binding DNA was labeled with Cy3 on the 5′ end, and the 252 bp Gal4-binding DNA was internally labeled with Cy3 34 bp in from the 5′ end.
LexA was expressed in E. coli, separated from genomic DNA and the proteome by polyethyleneimine precipitation, and salted out with ammonium sulfate. LexA was resuspended in buffer A (20 mM potassium phosphate pH 7, 0.1 mM EDTA, 10% glycerol, 1 mM DTT) + 200 mM NaCl and purified by a linear gradient to A + 800 mM NaCl over either a cellulose phosphate or HiTrap Heparin HP column. […]
Cy3-Cy5 NCP FRET efficiency measurements were carried out on a Horiba Scientific Fluoromax 4. […] LexA titrations were carried out in 20 mM Tris pH 7.5, 75 mM NaCl, 10% glycerol, 0.00625% Tween 20 buffer with 5 nM 147 bp Cy3-Cy5 NCPs mixed in 20 µL reaction volumes and allowed to incubate for 5 mins at 4 °C before FRET of the sample was measured. […] Gal4 (1–147) titrations were carried out in 10 mM Tris pH 8, 130 mM NaCl, 10% glycerol, 0.0075% Tween 20 buffer with 1 nM 252 bp Cy3-Cy5 nucleosomes mixed in 60 µL reaction volumes and allowed to incubate for 10 mins at room temperature before FRET of the sample was measured. […]

decrease in binding to NCP147 compared to NCP207 ([1]; NCP147 vs NCP207 (peer review file)): 2 fold | S1/2 ([1]; fluorescence polarization, pH 7.5, 75 mM NaCl, room temperature, 10 min, mean of n = 3): 0.4 µM | effect on binding of LexA to NCP147 [2]: decrease in binding of LexA to NCP147
B1: ATPaseCW: ATPaseCW cassette (aa 29–486) of human MORC4 (Q8TE76) (protein)
chain: GIRLSTMSPRYLQSNSSSHTRPFSAIAELLDNAVDPDVSARTVFIDVEEVKNKSCLTFTDDGCGMTPHKLHRMLSFGFTDKVIKKSQCPIGVFGNGFKSGSMRLGKDALVFTKNGGTLTVGLLSQTYLECVQAQAVIVPIVPFNQQNKKMIITEDSLPSLEAILNYSIFNRENDLLAQFDAIPGKKGTRVLIWNIRRNKNGKSELDFDTDQYDILVSDFDTEEKMTGGVTSELPETEYSLRAFCGILYMKPRMKIFLRQKKVTTQMIAKSLANVEYDTYKPTFTNKQVRITFGFSCKNSNQFGIMMYHNNRLIKSFEKVGCQVKPTRGEGVGVIGVIECNFLKPAYNKQDFEYTKEYRLTINALAQKLNAYWKEKTSQDNFETSTVARPIPKVPDQTWVQCDECLKWRKLPGKIDPSMLPARWFCYYNSHPKYRRCSVPEEQELTDEDLCLSKAKKQE
modifications: left off: GST, end not stated, cleaved
